Tests used:
[1] = biological target: MamM_(BW-1) cytosolic C-terminal domain (CTD), residues 213-293 (Desulfamplus magnetovallimortis strain BW-1); assay: SEC; preparative size-exclusion chromatography after Ni-NTA; HiLoad 26/60 Superdex 75; buffer E (20 mM Tris-HCl pH 8, 150 mM NaCl, 5 mM beta-mercaptoethanol)
[2] = biological target: MamB_(BW-1) cytosolic C-terminal domain (CTD), residues 190-270 (Desulfamplus magnetovallimortis strain BW-1) (UniProt G8IQT4); assay: as above

Row | stoichiometry N [1] | stoichiometry N [2] | Substance
1 | 2 | – | MamM_(BW-1) cytosolic C-terminal domain (CTD), residues 213-293 (domain or fragment)
2 | – | 2 | MamB_(BW-1) cytosolic C-terminal domain (CTD), residues 190-270 (from UniProt G8IQT4 190-270) (domain or fragment)

From paper PMC7170241
